Assay results taken from patent US20060057104A1, “Methods for stimulating tlr irf3 pathways for inducing anti-microbial, anti-inflammatory and anticancer responses” (THE Regents of the University of California Office of the …, priority 2002, published 2006).

What was measured:
BMMs = experiment: Quantitative real-time PCR gene expression in BMMs, wild-type and IFNAR deficient (Example 2); type: cell-based, murine; conditions: rIFN-β 10, 100, 1000 units
Description: Murine BMMs were stimulated with poly(I:C) (10 μg/ml) or lipid A (1 ng/ml) for the indicated times. Total RiNA was isolated and converted to cDNA for quantitative real-time PCR analysis using primers specific for IFN-β, IFI-204, IP10, IκBα, or L32. Experiments were repeated three times, and the data are presented in relative expression units on a log scale, as described in Example 2, infra.
Primary macrophage cells derived from bone marrow cells were stimulated with poly I:C (1 μg/ml) or lipid A (1 ng/ml) for the indicated times, as described in Example 2, infra.
(B) TLR3 and TLR4 mRNA levels were also assessed in cells deficient in IFNAR, and cells stimulated with rIFN-β (10, 100, and 1000 U). Experiments were repeated at least two separate times, and data are presented in relative expression units. L32 was used to normalize all samples.
Both wild-type cells and cells deficient in IFNAR were stimulated with poly I:C (1 μg/ml) or lipid A (1 ng/ml) for either 1 or 4 h. IFN-β, IP10, IFI-204, ICAM1, and L32 mRNA levels were assessed. Data are representative of three independent experiments and presented in relative expression units, as described in Example 2, infra.
Murine bone marrow-derived macrophages (BMMs) were differentiated from marrow as previously described (Doyle, S. E., S. A. Vaidya, R. O'Connell, H. Dadgostar, P. W. Dempsey, T.-T. Wu, G. Rao, R. Sun, M. E. Haberland, R. L. Modlin, and G. Cheng. 2002. IRF3 mediates a TLR3/TLR4-specific antiviral gene program. Immunity 17:251). A129 (IFNAR-1^−/−) (Muller, U., U. Steinhoff, L. F. L. Reis, S. Hemmi, J. Pavlovic, R. M. Zinkernagel, and M. Aguet. 1994. Functional role of type I and type II interferons in antiviral defense. Science 264:1918) and B6129SF2/J wild type control mice were obtained from B&K Universal Ltd. and Jackson Laboratories, respectively. C57/B6 mice were used for all experiments not involving the A129 mice (Jackson Laboratories). Specific TLR activation was achieved using F-583 (Rd mutant) E. coli lipid A for TLR4 (Sigma), CpG oligonucleotides for TLR9 (Invitrogen) and poly I:C for TLR3 (Pharmacia). For experiments employing the TIRAP/MAL inhibitory peptide (CN Biosciences), cells were pretreated for 1 hour with 20 μM peptide or DMSO alone. Cells were then stimulated with PAMPs in the presence of the inhibitory peptide. For experiments using murine rIFN-β (R&D Systems), wild-type macrophage cells were stimulated with 10, 100, or 1000 units. Viral infection and harvest was performed using MHV68 at an M.O.I. of 5 as previously described (Doyle, S. E., S. A. Vaidya, R. O'Connell, H. Dadgostar, P. W. Dempsey, T.-T. Wu, G. Rao, R. Sun, M. E. Haberland, R. L. Modlin, and G. Cheng. 2002. IRF3 mediates a TLR3/TLR4-specific antiviral gene program. Immunity 17:251).
RNA was isolated by standard guanidium isothiocyanate methods. cDNA template for quantitative realtime PCR analysis was then synthesized and PCR was performed using the iCycler thermocycler (Bio-Rad) as previously described (Doyle, S. E., S. A. Vaidya, R. O'Connell, H. Dadgostar, P. W. Dempsey, T.-T. Wu, G. Rao, R. Sun, M. E. Haberland, R. L. Modlin, and G. Cheng. 2002. IRF3 mediates a TLR3/TLR4-specific antiviral gene program. Immunity 17:251). IFN-βIP10, IκBα and IFI-204 primers were the same as those previously described (Doyle, S. E., S. A. Vaidya, R. O'Connell, H. Dadgostar, P. W. Dempsey, T.-T. Wu, G. Rao, R. Sun, M. E. Haberland, R. L. Modlin, and G. Cheng. 2002. IRF3 mediates a TLR3/TLR4-specific antiviral gene program. Immunity 17:251). For other genes, the following primers were used: […]

Primary murine B cells = experiment: Microarray analysis of primary murine B cells stimulated with LPS or CD40L; type: cell-based; conditions: LPS 20 μg/mL, soluble CD8/CD40L chimera 300 ng/mL
Description: (A) Primary murine B cells were stimulated with LPS (20 μg/mL) or a soluble CD8/CD40L chimera (300 ng/mL) and RNA was collected at indicated time points and used to conduct microarray analysis. […] Expression changes: Red—Induced, Green—Repressed, Black—No Change. Selected time points were hybridized to microarrays in duplicate to ensure reproducibility.
B cell isolation, target preparation, and hybridization using Affymetrix Mu6500 microarrays were performed as described previously (Dadgostar, H., Zarnegar, B., Hoffman, A., Qin, X.-F., Truong, U., Rao, G., Baltimore, D., and Cheng, G. (2002), Proc. Natl. Acad. Sci. USA 99, 1497-1502). Differential expression data was analyzed by Affymetrix Microarray Suite 4.0 software. Average difference change values were then normalized and the genes were clustered by the uncentered correlation average linkage hierarchical clustering algorithm using Cluster. Data was then visualized as a dendogram using Treeview software (www.rana.Ibl.gov/EisenSoftware.htm).
We have conducted a series of microarray experiments to determine gene expression patterns in murine B cells in response to activating stimuli such as LPS and CD40L. […] Genes were hierarchically clustered using average difference change values derived by comparing control samples (media 4h) with samples from cells treated with indicated stimulus.

| Molecule | TLR4 mRNA levels (BMMs; wild type cells) | TLR3 mRNA (BMMs; wild-type primary macrophages) | upregulation of genes previously characterized as interferon-responsive (Primary murine B cells) |
| --- | --- | --- | --- |
| recombinant IFN-β: murine rIFN-β (R&D Systems) (protein, UniProt P01575 22-182, looked up) Interferon beta: INYKQLQLQERTNIRKCQELLEQLNGKINLTYRADFKIPMEMTEKMQKSYTAFAIQEMLQNVFLVFRNNFSSTGWNETIVVRLLDELHQQTVFLKTVLEEKQEERLTWEMSSTALHLKSYYWRVQRYLKLMKYNSYAWMVVRAEIFRNFLIIRRLTRNFQN | relatively unaltered | dose dependent upregulation |  |
| CD40L (protein, UniProt P29965 113-261, looked up) CD40 ligand, soluble form: MQKGDQNPQIAAHVISEASSKTTSVLQWAEKGYYTMSNNLVTLENGKQLTVKRQGLYYIYAQVTFCSNREASSQAPFIASLCLKSPGRFERILLRAANTHSSAKPCGQQSIHLGGVFELQPGASVFVNVTDPSQVSHGTGFTSFGLLKL |  |  | not |
